How the values were obtained:
[1] = target: T1, human CD4 V1 polypeptide (AA1-AA113 and/or AA1-AA111) (human, UniProt P01730 26-138); assay: RIA: CD4-V1 competing with 125I-rsCD4 for immobilised antibody
T1 construct: range 1-113; also called CD4 VI

[2] = target: human CD4 V1V2 polypeptide (AA1-AA180) (human, UniProt P01730 26-205); assay: RIA: CD4-V1V2 (5 ug/ml) competing with 125I-rsCD4 for immobilised antibody
[3] = target: T2, rhesus monkey CD4 on circulating and lymph node CD4+ cells (rhesus monkey, UniProt P16003 26-458); assay: FACS of rhesus monkey blood cells, indirect staining
T2 construct: whole, on cells; also called アカゲザルCD4+細胞

[4] = target: T3, recombinant soluble human CD4 (AA1-AA375, V1-V4) (human, UniProt P01730 26-400); assay: affinity column of human rsCD4 on Affi-Gel 10
T3 construct: range 1-375; also called rsCD4

[5] = target: T4, human CD4 on the cell surface (human, UniProt P01730 26-458); assay: FACS: H9 cells pre-incubated with 10 ug r-gp120; competitors Leu3A and OKT4A
T4 construct: whole, on cells; also called cell surface CD4; CD4+ cells

T2 sequence (P16003 26-458): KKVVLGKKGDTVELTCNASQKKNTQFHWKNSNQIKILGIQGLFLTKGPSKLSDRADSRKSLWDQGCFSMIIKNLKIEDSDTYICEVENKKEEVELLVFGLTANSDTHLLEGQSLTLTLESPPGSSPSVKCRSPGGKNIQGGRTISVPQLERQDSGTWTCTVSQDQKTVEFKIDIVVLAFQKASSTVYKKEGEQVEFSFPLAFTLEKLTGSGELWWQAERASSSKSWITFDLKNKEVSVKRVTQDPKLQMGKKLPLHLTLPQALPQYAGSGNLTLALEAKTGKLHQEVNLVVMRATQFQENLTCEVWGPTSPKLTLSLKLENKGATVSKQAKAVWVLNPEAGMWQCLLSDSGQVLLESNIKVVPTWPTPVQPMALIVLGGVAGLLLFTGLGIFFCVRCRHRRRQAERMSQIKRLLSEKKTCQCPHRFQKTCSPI

B1: mouse monoclonal antibody 5A8 (antibody, V domains shown)
VH: EVKLQESGPELVKPGASVKMSCKASGYTFTSYVIHWVRQKPGQGLDWIGYINPYNDGTDYDEKFKGKATLTSDKSSSTAYMELSSLTSEDSAVYYCAREKDNYATGAWFAYWGQGTTVTVSS
VL: DIVMTQSPSSLAVSVGEKVTMICKSSQSLLYSTNQKNYLAWYQQKPGQSPKLLIYWASTRESGVPDRFTGSGSGTDFTLTISSVKAEDLAVYYCQQYYSYRTFGGGTKLEIK
notes: also called 5A8-2F6; hybridoma ATCC HB 10881 (IVI-10257)
[1]
  binding result: no binding (tested: 5μg/ml)
[2]
  binding result: binds
[3]
  binding result: binds

B2: soluble recombinant HIV gp120 (baculovirus) (ligand)
chain: not shown
notes: also called r-gp120; HIV r-gp120
[4]
  binding result: binds
[5]
  binding result: binds

From JP2007175055A (dated 2007)
